From the DeepSol protein solubility set

Assay: soluble on expression in E. coli; label from the status in PepcDB or PDB records

Soluble on expression in E. coli, not soluble:
MGSDKIHHHHHHMLPFLRSELARCQPYHPNPGGTGMAMDILDTNECPYDLPTDLKQTLADRYVEAIASNRYPDGSHTDLKAAIVDYLSEQTAGQWQPGPEHVTVGNGSDELIRSILIATCLGGQGSVLVAEPTFSMYGIVAETLGIPVVRIGRDPQTWEMDLAAAETAITQTEGTPVRLCFVVHPNSPTANPLTEAEKDWLRQVPPQILVVIDEAYFEFSGETLLAELPQHPNWLITRTFSKALRLAAHRVGYGIGDPQLIAALEAIRLPYNLPSVAQLAATLALEARSQLLSAIPRLITERDRLYRKLQVVSQLQVWPSASNFLFLKTQSSSQTAALAAQLKAQGTLVRHTADGLRITIGSPAENERTLAHLQTAITQSLPATV
MGSDKIHHHHHHMLQGKVSVIVPAYNAARLLERCVRSITGQTYPALEVIVVDDGSKDDTGKIADQLAAEDSRIRVVHKTNGGVSAARNDALKLVEGEWITFVDSDDYLEPDFLRSLLDGEVADLVIGGYHTVGANEIPSANYPTDTAHSPEAIKRALEARLTDMTFLCPWGKLFRTSLVRSLRLIFNTEMKVGEDVVFVWSYLAHCSSLAFKQGQGYDYYTEPGADFKYALDETVSLQTIERILGVLDGLKRNFGMDTEHARCHVLNYYIWLFKLYVNRNYLLRDLARMKNFFYYPLILDYYKTYRRTSKDKLLVYLLLKLRLSGVLYLMIKLYY
MGSDKIHHHHHHMLQTTNKPPLTIRLCQPRGFCAGVDRAIQIVVLALKKYGAPVYVRHEIVHNRYVVEGLQSLGAVFIEELSEIPAEHRRSPVVFSAHGVPKSVPADAQARNLFYLDATCPLVSKVHKQAMRHQRLGRHVLLIGHAGHPEVIGTMGQLPEGAVTLVETEADAARLVPADPKALGFVTQTTLSVEDTAGIIRALRERFPDLQAPAAESICYATTNRQEAVKDTAPGADLYLIVGAPNSSNSRRLVEVAERAGATMSLLVQRAAEIPWNDIGTISTLGLSAGASAPEIIVDEIIDAFRQRFDVTIDLAITATETEDFPVMRVLRDVELTPADMAFVNGAA
MGSDKIHHHHHHMLRGKDATLAAIINIILDEEPETQDDIADRLGVSRRYVAKLLKPLVDGGAIMHPYVVNLEKLKEFEEYIETDRYFKEIYETFDRMGTNVIQNIDKVFDSLKTHDLDIAKSIILEDYALNRMEDEVNLVIKMKASKYMDMNSLMQVSNIAANIERCGDYLSNIAEEVVNGLLVDPAIKKEVFEIKEIISKMFAHAMNMVKSKTIETEIYELEGNLHKKLDTMMEKIAEHPDENLKDINQFIQFGMFLKDVERFGDRCLKIFELGREFHHNIPKNVTTPEYVRNLK
MGSDKIHHHHHHMLRRYRKLGEILLEKGFITREELDKALEIQKEERKPLGEVLIETGYITEDQLLEALSEQYGVPILKELPKNIPLNVVGSIPKNIIESLHVIPVEKKEDGTLVVVTDNGTNIPRIKQEIRFLTGKNPEIYLVTSRDFSVLYQTYVLGVPLELFEEPYVAIEETPEQVEEEEEEEREVEEAPIVRLVNNIVNRAIEMGASDIHIEPMKRTVRVRFRIDGILRKVLEYQKPQHNSVVARIKIMSGLDVSERRLPQDGKFYTIKGGEQYDFRVSTMPSTFGEKVVMRILKVSDANKRLEELGYSEYNLKRILSLLEKPYGIILVTGPTGSGKSTTLVAMINYLKSESVNIVTAEDPVEYTIEGVTQCQVFPEIGLTFARYLRAFLRQDPDIIMVGEIRDRETAQLAVEASLTGHLVLSTLHTNTAAGAVSRLIEMGIDPHLLGASLIGIIGQRLVRKLCDECKMPGEVRDEQVKSYFEQFFGKVPDQIYYPSEEGCPACKGMRYRGRMAIGEVLIVDEELRELISSKASETEIAKLAVKKGMRTMFQDALEKVLLGQTSIEEVFRVTTPL
MGSDKIHHHHHHMLSHETIWNAIDRLAEQYHLTPSGLARKAGLDPTSFNKSKRVGPDGRMRWPSTESIAKVLEATGARIDQFVTLISNDNHQVNAVHETLPDGNFPPQIGTIPLLGLAQAGSGGFFDDGGFPAGQGWDLVDLPTSAKPGVYALEIQGDSMKPLYRDGDILIVEPGAPVRRGDRVVVKTCDGEVMAKVLGRQTARTVDLISINPDHPNRVLDMQDVEWIARIIWVSQ
MGSDKIHHHHHHMLSRTAENLFWLARYVERAEYLARTIEATLRVTALPSAYIGKTNEWDSALLTAGVGGNFYNFHDEANEQSVVDYLAFSSDNPSSIRNCIENARLNARSVRTALTGEMWDTLNSAWIELQEAWGKGTKTREDLTRFLRFVQEISLRFDGSAYRTMLRNDAYWFSRLGLHLERADNTARILDVKYHVLLPEEEHVGGPLDYYQWSSILRSVSALTAYHWVYRETLKPWLIADLLILNDTLPRSLASCYGNLTRNLDNIGVAYGRHGAAQRHARGVRNRLEHSKMDDIFQRGVHEFIQEFIADNARLGEVIAKQYLI
MGSDKIHHHHHHMLSTTNLTMQFGAKALFENVSVEFGNGNRYGLIGANGSGKTTLMKILGGDLEPSSGHVSLSSGERLGKLRQDQFAFEECTVLDTVIMGHAELWRVKQERDRLYALPEMTDEEGMAVAHVEVEFAELGGYAAESRAGELLSGVGIPLEQHSGLMSAVSPGWKLRVLLAQALFADPDILLLDEPTNNLDIHTIQWLEELISNLNSTVIIISHDRHFLNSVCTHMADLDYGELRIYPGNYDEYMQASTLVRDQLLADNDKKKEKMAELQGFVSRFSANASKAKQATSRARQLEKIQLAEVKPSSRQNPYLVFNQERKLYRNALDGKDLSKSFGDLRLFHKMRLHVEAGERIAIIGSNGLGKTTLLRCLMGELTTDAGEIKWAENARIGYFAQDYAPEFAEDMTLFDWMCQWRGERDDDQVIRGVLGRLLFGQDQVNRSVKVLSGGEKGRMLFGKLTLQKPNVLILDEPTNHLDMESIESLNSALEKYDGTLLFVSHDRAFVSSLATRIIEFTPRGIQDFKGTYEDYLRSQGMG
MGSDKIHHHHHHMLSVFVVNLRSNSAPFSFSRLLMHTTIVNERSLRTCNFPITLQDIRTLKELYRLKAETRDLRKPIVRNIMKQRVVGKGCLESLKNALYSLETIYIDDYTGQRLLRIDGMKQIEVDLTYEIRELQKDIYYLEYGEDRFIEYLAKFIPGFTDYVTEGVEMLRGKSFNAFITDRDGTTNNYCGRYRSSIQPIYNSVFLSRFAKNCCRYPMIVTSAPLKDFGILNVSINPEHIFVYAGSKGREFIDIDGQFHSFPIEPGKQELIRLLNERMQLLLLDPSFEKFNFIGSALQMKFGQTTIARQDITRSVNEAESAAFLEKIKGIVRDIDPEGKNFRIEDTGLDIEIILTIDVDPKTGMIRDFDKGDGLEFICRKMNIDHTGEPVLVCGDTSSDIPMLKKAMEMYDDVWAIFVTRDEKLMQRVREICPKSYMVPYPDILLTILGLLSL
MGSDKIHHHHHHMLTVLLLAGAEKLINMAIASDEITKAGLVPLAGKVLRLNMGTPDVNLDVLFTQERLRFEPVTTESVFEQSGTMNERQKASLERGRLGHSRPDCIITVANPAQLLNLMRGTEGNLPIEGDYKVLMQLNQLVAGFDPDVAGQLEPFIGKPMASQLHLLISQLKGSWRHSAKRAFNDVSDWANDVAGNVTPDTSEAAEVNVLKQQLLKLRADVEREEARLAAIKDEQARLTNSR
MGSDKIHHHHHHMLVAERQQKIVEIVNMRSSIRVSELSDIFSVTEETIRRDLEKLEKEHKLSRSHGGAVSIQQKESEIHFSEREITNVIEKKAIAHEAAKYVKSGDRIILDASTTAWYMAKILPDIELTVITNSMKAAIELSNKENISVISTGGILLEKSLSFAGPLAERSLETYHVNKTFLSCKGFDVHNGMSDSNEWQALLKKRMIERSDQTILMADSSKWGNREFSHIASLQDVSRLITDSGLDPASVKALEDKKVKVTAVPLSKRG
MGSDKIHHHHHHMLWFKNLMIYRLSQDSVLSKDNVLSTDEMEKRLSAFAFTPCGSQDMMKTGWVSPMGSHSDALTHVVNGQIVICVRKEEKILPSPVIKQTLQAKIERLEAEQHRKLKKTEKDSLKDEVLHSLLPRAFSRLSQVWLWIDTVNGLIMVDAASAKKAEDTLALLRKTLGSLPVVPLTMENPIELTLTEWVRSGEPAAGFALQDEAELKAILEDGGVIRCKKQDLVCDEIAVHIEAGKLVTKLALDWQERIQLILSDDGSVKRLKFSDTLREQNDDIDREDFAQRFDADFILMTSELAALIANLIEALGGEAQR
